Source: PMC7911018

Target: C8-αGFP chimera (anti-GFP CDRs grafted into the C8WT scaffold) fused to mCherry
Experiment: SEC; gel filtration after IMAC on Superdex 75 10/30 in PBS, pH 7.4, 1 mM DTT

B1: C8-αGFP chimera (anti-GFP CDRs grafted into the C8WT scaffold) fused to mCherry (VHH)
VHH: DVQLQASGGGLAQPGGSLRLSCAASGFPVNRYSMYWVRQAPGKGLEWVSSISSAGDRSSYYADSVKGRFTISRDNAKNTLYLQMNSLKLEDTALYFCAVNVGFEGQGTQVTVSS
stoichiometry N: 2
